Reference: the domain aggregation screens of Martell et al. (2025)

Experiment: soluble fraction after stress (log2 fold change); higher = more stays soluble; pooled small domains, quantitative proteomics
Conditions: stress: 75 degC
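Further: 20 min heating vs room temperature control held 20 min.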

Sequence | soluble fraction (log2)
HMTEKPTREAHILDQLARDGGVLVAALSRELGVSEVTIRSDLRDLEAAGLLQRTHGGAQASSFQTVL | -0.0942
HMHNSPSPVATTILRFLQPVRAFVGDTEDMRTFGPFLREDVAMVPASQAKNLIRSGHAVEINP | -0.0107
HMQISYDVPNLIGKSYEEVMTDPSILGEHFTVVLGETKTDEDTDAGVILHQDPAADSKVQDEVTPITVTVS | 0.374
HMVSEASELTDTINKIGSLAQALVGANKLSKTDLVGIIKKYHTSANYNSITDIGVAKNILAELEAKN | 0.13
HMDGMRASDMVRAALAGAGKTQKELAEHMGWTPQNLSGRLKNNSLTFDELSKALHFAGYEVSMSDANGAG | 0.0394
HMEMPGGVMRTLSTIAYNQPVLQSKLVKVRGPRAYEDVHILRDMGLVSARSVGQTVELSTTPKFAEQF | -0.622
HMSTSLIEFTIDRNNSIANKMIMDANIPEDILVVMIKRNGDVFVPNGSTKILPGDILVLSGNKLKY | -1.69
HMTELNNTQRAAVLLLALDEDSAAEVFKHLSAREVQEVSQEMAKLGNISHDQMRQVLDDFYDESEQF | -0.127
HMSSVRDNGDLELVPGDRIRHDDYGEGRVTAVTGVGSKRIAHAVFDSVGERKLLIKLSPIEKI | -0.0574
HMARGRETILLVEDEPAVRGLVHATLRLHGYTVLEARHGIEALLTSTKFVGPIHLLLTDVVMPQMS | 0.0984
HMQDYYTQSDFARYLEDKGIHFPQNKIAVYRKRGKFPKEDLVVAGTPYWSKYTVESFAKHLLEQQN | 0.254
HMDDEDLAFLQREFVSYQQAMDYYGLGYKPVVRLSHISGSVYKIGKKVLIRRNIFEEYLRNHV | 0.0397
HMENITTILRSIKNEIKKNSTFVGDDFVNQARSMNQGQIKEKSIYGHGTKKEIEELRDEGVDVLNIPWIT | -0.104
HMLEIRGFTVLLSDRGIVGIIEEIIQNPGQDLLRILSPEKREILVPLHSDLITGINKKKKTITMNLPDGL | -1.87
HMKSYTYNPNYLSDYNAYRLGIPLEALERLQLHRSTGRYVNSLSDFQSVTGISDSLKHSLSSSLRFPN | -1.36
HMKLVAAGYHQNRLLVLLGIQAEELQAKRLLASFDRFRGREATPKPPIHDSARRWLRDTYHHVMNQVPVEL | -1.59
HMKKQLTISDGDWAGKVSSMLEDMGVINSASEFDKYLSDNGYSNVIKSGTYDVSPEDTFQELAEKIT | 0.952
HMGVYDLIYLGYGINVEKEELVDQNISIIRRYANIFDPNGDIKGSTNPTYASNTAVLFNEAKFIIDGYD | -3.7
HMNKKLEMKIEQLDLSVRLFNSLKRSGIYTVAQIIKLTEEDVMRFRSLGRKSFKELKEKLSEHGLEFE | -2.14
HMTPFVINVDRHGAVIINEKTVDIDEAVVLARQERSQGKSILLAGDKKAPYEAIIRVLDALKQAG | -0.758
HMANMTAKQINMFGDKLSRDKDFQSYYIAKSGDSREQYAQDIKGKLLDPFYVNAWMPYLEKIGFVPS | 0.0935
HMKSEMYIDLSNALLKMSERDKELLTYRYTMEMSSKEISQITGIKESNVNSYIRRAREKLLKIFNAMNK | -3.73
HMHSLLDDIPNVGEKRKRILLTHFQSLEEIKAATVEELERLPQINRKAAESIYTFFHSQPIR | -0.735
HMSGGIVRLAVKPWGEVFVDGASRGITPPLKQLTLDAGVHRIEIRNPAGPSWTKDVDVVAGQPTTVSHRF | -0.494
HMQQDVLKLKSGGNYKGEYINIESAYVLFKPEGGNATQRIKVNEIQMLKLADGTEVIFGGRVK | -0.237
HMPEVAHTIDMEAVNKHWDELPEREQRILVMRFYGNLTQTEIGERLGISQMHVSRLLARALSHLKSRLLD | -3.89

Sequence | soluble fraction (log2)
HMGKELTVPDVVGQNYVSAQEKLIAGGFQVEVADSVYDSRYGRGVVVDQNPHKDTRVKPGRLIYVTVNA | -0.157
HMTDFLKTRIDTLGLSTRTLNALSEANVRTIGGIARKKQEDLLEIDGIGEKGIQEIKKMLGEYGITL | -0.303
HMGDLLTVDRVAATSGLGVDTIRYYQRLGLLDPPVRHGRRALYSTAHLDRLVEIRQLADEGFSLAQIATL | -1.05
HMGEIVVPDLIGKSLTEATRILSDSTLTVGKVNYQISSTLLPNTVLDQYPAPGNKLNSGNTVDLFITKE | 0.068
HMHSEEAALLHRYIDSLEEPQHTVVVMRDIGGYSFEEIASVVQLKEAHIWMILSRARRKLRELYIKTMDHH | 0.0533
HMKQESSEDLLNEVIDKVIDSNPDEKNRLLDGELKLVSFFMGQVMKETKGKANPGVINGLIKKKFNI | -0.701
HMRRSKVMLESILDEIPQMGQARRAALLEQFGSVAALRKASLAEIAMTPGIGEKIAVIIFEYLQKSSH | -1.69
HMANFGSILRNLRISRDITQSELAAKLGVSRSTVGMYETGAREPDFEAMEAIADTFNVDMDYLVGRSQ | -0.258
HMAYMETIERVEALAPGTKFNLKALFGTDWTQSRGTKLTLGKTFYEMVESGYVKTAKVLGKDSSNIMQYER | 0.0793
HMTSKVTVLAVNGRITVSGKEQDETVSVYDTGGRLLYQGESDVINVPRKAMYIVTVSRKSYKVIV | -1.52
HMQINLKQSSDEELVKIITVQVHHYEPHTVKAAEAEIERRGIDKMRMAHLVKKVAQENTAVQEIQD | 0.297
HMSSRLEIEITSKIDDLSHTWRAVGAKQPKGNIKSSLLPSGVKVGETFRVEADFLLDGIEIVSVLPP | -1.86
HMSAQPMEYSRFYSDVTQGRVAEVEIEGREINGRLSTGERFKTFSPETDNKALIGHLLDNGVVIEGKPP | 0.255
HMDSHSAESVRQRIKDMIAAEASKSILSDDTIVENLKSEGIEIARRTVAKYRESLNIPSSIQRRRIARSEA | -0.19
HMQAMDYEGFKKEILKMSDIDLSLYKEKQMKRRIDSLIRKNGYEHYEDYVQALKQDSGLYNEFINYLTI | 0.571
HMSHRVGDVVELTAVRMNDQGVFLDAGTGNTSDDILLHKHQMTSPVSVGDKVKVQLYLDAKNRITASMKL | -0.36
HMLPGVPVVAGKTQSAATRILKAAGYAVSVVREEAFDGVTGTVLRTSPEAGSPLAPGSRVTLVVLQVV | -2.22
HMKRNLESVLDHIEGIGPKRRKALYKHFGNLDAMRVAELEELESVEGMNKKAALAVYEFFRRNS | 0.386
HMPQKSDLTMEEYNKLGLAGGSGSRKLREQVGIRLSVGYGNSKQFYNRLHTFGISLDELKTAVEEVKNG | 0.226
HMKEMTAKQIDMFSDKLSKLESFQSHYIADAGVSVTEYKQAIAAKLQDQFYVEAWGKYLADVGFT | -0.393
HMGKLYRDRYAPLEPDGARAGDRVFIISLEKEGTLERIDLPRKTATVLLGSSIRSTFPLDDLYQPRG | -0.25
HMSFDTFKKVFSNLVEKSGYSDAEIARRLGVNRSTISRWKSGEQSPPLPKVKEIANFFGVSPMVFVD | -0.41
HMNGAAAEQARKQLMTALKASEFIAQDKLDEWLDALALPQEKRSAIIDAVDELDYEEAISELEN | 0.287
HMYTEIDDVKDLLSKIPSVNKLTTADRGMVQAARNAYDALDEDQKLYITIADVEKFNAAVEWMEEH | -0.186
HMVTDVDELEKLIQKVLDSNSSQVDEYRQGKEKVFGFFVGAVMKLTKGQADPDVVNQLLKEKLSGRK | -0.177
HMQQFGANVRLIRKARQMSIKQLSELSGVSQTMISEVERGLKIPTIDVAGKIAAALGIDLTNLMG | -2.16

Sequence | soluble fraction (log2)
HMKKRDANSQGTRLILFYMLQRLHTEYKLQGFVTYNQRRSFREIYDAYHALGGNGFGTAMWEEVKELDLK | -2.18
HMNREENIQIGRDLLERELRKQGMDLQENLRQEVLLDGAKKLGFNNTDDLLAAIGDLKVTPAMFIGKIA | 0.0484
HMEDMMKALLDVVRAQHTATEGSEERPFDINDIIDMALNITGRPEEPEEQQELSDTIQKLAESLAPDIFP | -0.424
HMSKISKENEQQVIQIVQTLLLNVQDKSLITTQILNEKINLAVSLDTKYKENLDRDYIIEELIRRYSVW | -2.93
HMEIITIVSDINGKRIDAWLSEKLENYSRSFIQKLIQNENVKVNNNIVKANYKLKNGDAVAVSIPEPV | 0.179
HMDSAMMDLVMRVQLALFTKGYDVGIIDGKIGPKTRAQIKRYQSDNRLSSTGTLTTSLLTSLGIQ | -3.16
HMNNIGSKIKSAKILNNLDDNQLSEITGIDKLQLRSIQDGQVNPTKMELEIISKALKLPTNYFTK | -0.115
HMIPYSDLLKLLSNDAMPKFRNKDGWAKIHALETYLASRWSYQEYGFASFTVLLETVHNAEIRNDSVRLM | -0.479
HMTTIHVDPEKISKIIGPGGKTIKKIVEETGAKIDIEEDGRVYIAAVNSEEAAKAIDMINGI | 0.0704
HMSILTELDIGDKVEVVAGPFKGIQANITRIEPVRKEVTVILLDAPYQLPVTVDADYLKIIQKS | -1.63
HMIVKQPDIRKQELLDIGVRLYFEAGEKGVSIQQVVKQAGVATGLFYYYFSSKDAFLDEALNDYID | 0.0613
HMVPLGDLSKNERRAMELAATNGNVTTRALADDAQVTKRTASTTLRRLAKRGLLEWIGKGPSDPGQFYRIP | -0.351
HMNLTSNDAYSRILNAIITSELRPGDTVTEIQLAQKFGFGRTPVREAIMRLENEGFIVSAERKKRVYIL | -2.97
HMSNGEWQQGSDGRWWYKFSDGTYPKNKVETIGGKKYGFDSEGWMLANTTKEFSGTTYSFGADGVATS | 0.223
HMHSFGLHVRNLRKKSNLTLSQLSNASGLSLSAISKIENNQISPSFINLIRLAEGLKMHIADLVTVK | -2.2
HMNIAEIGQKVAQQRVALGISQERLAKLSDLSRSTIHHLEHGTLHEIGAAKLFKLLSLLDIQLK | -2.07
HMKTPETSEYVVQAGDSLRRILTERYGAKEQDLPYLYRQFRLLNPKVSSLDNIHAGTKVRIPLVASVL | -0.135
HMGIVTMPGQGSKMRFDFDATGDLPSSTSWRGMFAYANNTKRAYVSTGTTMGGYNGWRQLIAMDEYGNYQT | 0.0821
HMDDFTEVLLQYLKDHDGYSSIHDKTDAETIYNTFGVSKKTFKKAVGDLYKKRLIVLEEEGIRLLG | -0.151
HMGVNEGVNKLFKTIQETPGKRMPYYALATDVPEKTIERWLKQLREEGKIEFKGSAKTGGYFVIDK | -0.000624
HMHSRLEDIPGIGPRRRAMLLRHFGGLAELKAAGVEEIARVEGINMALAQRLWRALHGVPDPT | -0.641
HMQVVDWSQVDKEDYLLATKRRAVSTGELKFLLLNNLTYDLTQTRFFKGMDASYYYEGYNLYQTGE | 0.0696
HMNVAELIEGHEAEIAEVLKEFSLLYLMRLADELGEMTKSSSGNGPFQVLKGLVYEEIARRG | -1.65
HMKLTINIDAAHDGKTIKQLFAEKGYSLELIKKFKYDGAIEVNGERKTVRWVLREGDLLVLEAN | -2.42
HMVLVKFEWTPPDARILVDDHPVEARDKEMELPEGTHHVQALAPRGSGYESTVTDIEVRQGMDPVRIAL | -0.292
